From patent publication US20210238290A1 (DRAGONFLY THERAPEUTICS, published 2021) come the findings set out here.

The target of the experiment is T1, human P-cadherin (CDH3) expressed on cancer cell lines HCT116, H1975 and CAL27 (human, UniProt P22223 108-829).
T1 construct: whole, on cells
Nature of the experiment: flow cytometry on H1975, HCT116 and CAL27 cells, MFI fold over background. From the text:
Human P-cadherin (CDH3)-expressing cancer cell lines, HCT116, H1975 and CAL27, were used to assess tumor antigen binding of multi-specific binding proteins having a P-cadherin (CDH3) binding site comprising a heavy chain variable domain sequence identical to SEQ ID NO:196 and a light chain variable domain sequence identical to SEQ ID NO:200 (D153 DB), or a P-cadherin (CDH3) binding site comprising a heavy chain variable domain sequence identical to SEQ ID NO:188 and a light chain variable domain sequence identical to SEQ ID NO:192 (TSP7 DB). Multi-specific binding proteins or corresponding monoclonal antibodies (mAb) having the same P-cadherin (CDH3) binding site were diluted and incubated with the cells. Binding was detected using a fluorophore conjugated anti-human IgG secondary antibody. Cells were analyzed by flow cytometry and binding was expressed as mean fluorescence intensity (MFI) normalized to human recombinant IgG1 stained controls to obtain fold over background (FOB) values.
In general terms: In flow cytometry, cells or beads pass a laser one at a time.

T1 sequence (P22223 108-829): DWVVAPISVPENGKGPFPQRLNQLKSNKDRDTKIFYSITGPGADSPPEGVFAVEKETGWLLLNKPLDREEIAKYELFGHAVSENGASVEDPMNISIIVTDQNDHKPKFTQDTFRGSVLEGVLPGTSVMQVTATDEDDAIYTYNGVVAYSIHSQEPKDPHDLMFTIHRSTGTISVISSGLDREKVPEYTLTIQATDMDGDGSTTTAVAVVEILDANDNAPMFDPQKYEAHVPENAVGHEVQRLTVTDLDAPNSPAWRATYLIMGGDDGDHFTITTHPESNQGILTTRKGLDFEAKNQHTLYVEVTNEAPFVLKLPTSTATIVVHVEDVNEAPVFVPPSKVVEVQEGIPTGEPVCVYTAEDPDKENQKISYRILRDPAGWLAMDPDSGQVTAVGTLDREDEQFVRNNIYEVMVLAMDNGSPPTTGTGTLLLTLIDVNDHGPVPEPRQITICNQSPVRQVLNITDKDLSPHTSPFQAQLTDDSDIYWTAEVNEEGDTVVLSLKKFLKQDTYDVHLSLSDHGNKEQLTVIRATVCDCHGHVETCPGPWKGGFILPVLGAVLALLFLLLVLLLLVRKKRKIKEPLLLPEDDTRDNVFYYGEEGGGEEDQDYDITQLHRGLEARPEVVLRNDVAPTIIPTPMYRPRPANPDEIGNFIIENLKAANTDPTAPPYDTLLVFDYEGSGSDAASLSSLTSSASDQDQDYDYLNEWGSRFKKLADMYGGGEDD

B1: anti-P-cadherin mAb (D153 wt mAb) (antibody, V domains shown)
VH: EVQLVQSGAEVKKPGASVKVSCKASGYTFTSYGISWVRQAPGQGLEWMGWISAYNGNTNYAQKLQGRVTMTTDTSTSTAYMELRSLRSDDTAVYYCATIDTANAFGIWGQGTMVTVSS
VL: QSVLTQPPSVSAAPGQKVTISCSGSSSNIGNNYVSWYQQLPGTAPKLLIYDNNKRPSGIPDRFSGSKSGTSATLGITGLQTGDEADYYCGTWDSSLSGVVFGGGTKLTVL
notes: it was detected with an anti-human IgG secondary antibody; also called D153 mAb
For B1, the binding result is on record as “binds”.

B2: anti-P-cadherin mAb (TSP7 wt mAb) (antibody, V domains shown)
VH: QVQLQESGPELVKPGASVKMSCKASGYSFTAYNMHWVKQSHGKSLEWIGFIDPYSGIITYNQTFKGKATLTVDKSSSTAYMQLNSLTSEDSAVYYCARRGYYDGGFDYWGQGTTLTVSS
VL: DIQMTQTTSSLSASLGDRVTISCRASQDITNYLNWYQQKPDGTVKLLIYYTSRLHSGVPSRFSGSGSGTDYSLTISNLEQEDIATYFCQQDSKHPRTFGGGTKLEIK
notes: it was detected with an anti-human IgG secondary antibody; also called TSP7 mAb
Regarding B2, the binding result is on record as “binds”.
